Measured values taken from the supplement of paper PMC9112550, “Optimization of the antimicrobial peptide Bac7 by deep mutational scanning” (BMC Biology, 2022).

What follows are sequences tested on Escherichia coli TOP10 (assay: shrunken log2 fold change of peptide-encoding DNA abundance (4.5 h post-induction vs induction); higher = less antimicrobial activity (less host growth inhibition)). Conditions: time post-induction: 4.5 h; library: site-saturation at positions 5, 18, 19, 20.
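Note: peptides expressed intracellularly from a pBAD plasmid library in pooled LB shake-flask culture, induced with 0.3% L-arabinose, DNA abundance read by NGS, three biological replicates, DESeq2 with apeglm shrinkage.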

Row | Sequence | shrunken log2 fold change
1 | RRIRIRPPRLPRPRPRPPSDPRP | -0.101
2 | RRIRIRPPRLPRPRPRPPSWPRP | 0.0866
3 | RRIRIRPPRLPRPRPRPPVMPRP | 0.126
4 | RRIRIRPPRLPRPRPRPPYCPRP | -0.328
5 | RRIRIRPPRLPRPRPRPQAFPRP | -0.0625
6 | RRIRIRPPRLPRPRPRPQATPRP | -0.24
7 | RRIRIRPPRLPRPRPRPQCTPRP | -0.769
8 | RRIRIRPPRLPRPRPRPQFIPRP | -0.782
9 | RRIRIRPPRLPRPRPRPQFWPRP | 0.133
10 | RRIRIRPPRLPRPRPRPQFYPRP | -0.945
11 | RRIRIRPPRLPRPRPRPQGAPRP | 0.0368
12 | RRIRIRPPRLPRPRPRPQGEPRP | -0.0606
13 | RRIRIRPPRLPRPRPRPQGPPRP | -0.0152
14 | RRIRIRPPRLPRPRPRPQGYPRP | -0.0157
15 | RRIRIRPPRLPRPRPRPQHGPRP | -0.184
16 | RRIRIRPPRLPRPRPRPQIEPRP | -0.0116
17 | RRIRIRPPRLPRPRPRPQIPPRP | -0.216
18 | RRIRIRPPRLPRPRPRPQLPPRP | -0.0273
19 | RRIRIRPPRLPRPRPRPQLSPRP | -0.565
20 | RRIRIRPPRLPRPRPRPQMGPRP | -0.0795
21 | RRIRIRPPRLPRPRPRPQMWPRP | -0.171
22 | RRIRIRPPRLPRPRPRPQMYPRP | -0.211
23 | RRIRIRPPRLPRPRPRPQPRPRP | 0.343
24 | RRIRIRPPRLPRPRPRPQQCPRP | -0.211
25 | RRIRIRPPRLPRPRPRPQQIPRP | -0.552

Row | Sequence | shrunken log2 fold change
26 | RRIRIRPPRLPRPRPRPQQRPRP | -0.104
27 | RRIRIRPPRLPRPRPRPQQTPRP | -0.169
28 | RRIRIRPPRLPRPRPRPQRPPRP | -0.465
29 | RRIRIRPPRLPRPRPRPQRSPRP | -0.0897
30 | RRIRIRPPRLPRPRPRPQRWPRP | 0.304
31 | RRIRIRPPRLPRPRPRPQTFPRP | -0.156
32 | RRIRIRPPRLPRPRPRPQYSPRP | -0.581
33 | RRIRIRPPRLPRPRPRPQYWPRP | -0.361
34 | RRIRIRPPRLPRPRPRPRAIPRP | -0.356
35 | RRIRIRPPRLPRPRPRPRDIPRP | -0.203
36 | RRIRIRPPRLPRPRPRPRDKPRP | 0.115
37 | RRIRIRPPRLPRPRPRPREWPRP | 0.0237
38 | RRIRIRPPRLPRPRPRPREYPRP | -0.565
39 | RRIRIRPPRLPRPRPRPRFPPRP | 0.0241
40 | RRIRIRPPRLPRPRPRPRHLPRP | -0.458
41 | RRIRIRPPRLPRPRPRPRILPRP | -0.188
42 | RRIRIRPPRLPRPRPRPRIPPRP | -0.324
43 | RRIRIRPPRLPRPRPRPRKWPRP | 0.0966
44 | RRIRIRPPRLPRPRPRPRLMPRP | -0.0272
45 | RRIRIRPPRLPRPRPRPRPCPRP | -0.0531
46 | RRIRIRPPRLPRPRPRPRPEPRP | 0.11
47 | RRIRIRPPRLPRPRPRPRPKPRP | 0.567
48 | RRIRIRPPRLPRPRPRPRQKPRP | -0.028
49 | RRIRIRPPRLPRPRPRPRQYPRP | -0.258
50 | RRIRIRPPRLPRPRPRPRRWPRP | 0.592

Row | Sequence | shrunken log2 fold change
51 | RRIRIRPPRLPRPRPRPRSLPRP | -0.036
52 | RRIRIRPPRLPRPRPRPRVLPRP | -0.24
53 | RRIRIRPPRLPRPRPRPRVNPRP | -0.603
54 | RRIRIRPPRLPRPRPRPRWQPRP | 0.128
55 | RRIRIRPPRLPRPRPRPSAYPRP | -0.138
56 | RRIRIRPPRLPRPRPRPSCEPRP | -0.17
57 | RRIRIRPPRLPRPRPRPSCMPRP | -0.637
58 | RRIRIRPPRLPRPRPRPSCSPRP | -0.83
59 | RRIRIRPPRLPRPRPRPSEAPRP | -0.0351
60 | RRIRIRPPRLPRPRPRPSFEPRP | -0.507
61 | RRIRIRPPRLPRPRPRPSGDPRP | -0.742
62 | RRIRIRPPRLPRPRPRPSGTPRP | -0.0278
63 | RRIRIRPPRLPRPRPRPSHDPRP | -0.527
64 | RRIRIRPPRLPRPRPRPSHRPRP | -0.276
65 | RRIRIRPPRLPRPRPRPSHYPRP | -0.528
66 | RRIRIRPPRLPRPRPRPSIDPRP | -0.342
67 | RRIRIRPPRLPRPRPRPSIHPRP | -1.28
68 | RRIRIRPPRLPRPRPRPSIYPRP | -0.925
69 | RRIRIRPPRLPRPRPRPSKQPRP | -0.18
70 | RRIRIRPPRLPRPRPRPSKYPRP | -1.12
71 | RRIRIRPPRLPRPRPRPSMNPRP | -0.717
72 | RRIRIRPPRLPRPRPRPSNSPRP | -1.13
73 | RRIRIRPPRLPRPRPRPSPCPRP | -0.761
74 | RRIRIRPPRLPRPRPRPSQCPRP | -0.0584
75 | RRIRIRPPRLPRPRPRPSRGPRP | 0.242
